# Source: patent US20210186964, “METHODS OF TREATING CANCERS” (Dana-Farber Cancer Institute, Inc., published 2021)
# T1: USP1 (UniProt O94782 SEQ:1-770)
# T1 sequence: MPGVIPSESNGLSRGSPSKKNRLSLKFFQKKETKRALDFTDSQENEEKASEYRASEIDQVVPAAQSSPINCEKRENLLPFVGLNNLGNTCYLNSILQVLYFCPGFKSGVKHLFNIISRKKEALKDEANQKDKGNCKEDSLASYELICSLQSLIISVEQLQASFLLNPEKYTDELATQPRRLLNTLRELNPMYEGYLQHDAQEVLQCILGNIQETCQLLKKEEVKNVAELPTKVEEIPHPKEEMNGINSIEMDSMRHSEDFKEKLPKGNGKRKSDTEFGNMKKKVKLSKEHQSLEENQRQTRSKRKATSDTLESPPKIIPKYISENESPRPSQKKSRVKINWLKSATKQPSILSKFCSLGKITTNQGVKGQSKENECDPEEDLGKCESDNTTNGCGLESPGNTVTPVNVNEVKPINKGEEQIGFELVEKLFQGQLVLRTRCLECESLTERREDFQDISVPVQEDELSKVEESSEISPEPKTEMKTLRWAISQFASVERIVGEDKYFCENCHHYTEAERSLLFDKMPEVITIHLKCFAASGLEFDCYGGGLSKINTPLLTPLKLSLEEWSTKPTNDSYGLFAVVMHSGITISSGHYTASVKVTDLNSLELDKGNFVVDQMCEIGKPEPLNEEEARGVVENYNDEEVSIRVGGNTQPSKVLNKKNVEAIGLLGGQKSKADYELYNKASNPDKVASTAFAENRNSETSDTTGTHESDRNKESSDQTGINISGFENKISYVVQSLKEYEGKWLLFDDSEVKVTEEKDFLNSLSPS
# Key:
# USP1 = biological target: T1, USP1; test: EMSA; 300 nM USP1; strongest shift; 5 mM MgCl2, 0.1 M KCl, on ice; not disrupted by ML323 (FIG. 11C); conditions: tags: SF9-made or R&D systems E564; label: Cy3; fork with non-complementary single-stranded arms
# Method: (§1) Recombinant USP1 and UAF1 proteins from R&D systems (E564, E566) were used for some electromobility shift assays and in vitro deubiquitination assays. Electromobility shift assays were performed by pre-incubating fluorophore (Cy3)-tagged DNA and purified protein in binding buffer (20 mM Hepes (pH 7.6), 0.1M KCl, 5 mM MgCl2, 3% (v/v) glycerol, 0.25 mg/ml BSA, 0.05 mM EDTA, 0.5 mM DTT, 0.01% (v/v) NP-40) for 30 min on ice. Samples were then loaded onto 6% polyacrylamide gels and ran at 65V in 0.5× TBE for 135 min at 4° C. Gels were visualized using the LAS-4000 imaging system (GE Healthcare Life Sciences, Pittsburgh, Pa.). DNA used for Ub-AMC, Ub-CHOP2 and electromobility shift assay were 40 bp in length and were designed to have minimal potential of secondary structure formation. The sequences are as follows:
# (§2) Since UAF1 has DNA binding activity, USP1 might also bind DNA and thereby stabilize replication forks. To test this hypothesis, DNA gel shift assays were performed with purified UAF1 protein with or without purified USP1 protein to analyze direct DNA binding activity. Purified proteins were incubated with either single strand DNA, double strand DNA, or fork DNA. The UAF1 protein and the USP1/UAF1 complex generated a reproducible gel shift of all three DNA templates.
# UAF1 (WDR48) = UAF1 (WDR48) (UniProt Q8TAF3 Q8TAF3:1-677); test: EMSA; 300 nM UAF1; conditions: tags: SF9-made or R&D systems E566, label: Cy3
# Sequence of UAF1 (WDR48) (Q8TAF3 whole entry, one chain of several): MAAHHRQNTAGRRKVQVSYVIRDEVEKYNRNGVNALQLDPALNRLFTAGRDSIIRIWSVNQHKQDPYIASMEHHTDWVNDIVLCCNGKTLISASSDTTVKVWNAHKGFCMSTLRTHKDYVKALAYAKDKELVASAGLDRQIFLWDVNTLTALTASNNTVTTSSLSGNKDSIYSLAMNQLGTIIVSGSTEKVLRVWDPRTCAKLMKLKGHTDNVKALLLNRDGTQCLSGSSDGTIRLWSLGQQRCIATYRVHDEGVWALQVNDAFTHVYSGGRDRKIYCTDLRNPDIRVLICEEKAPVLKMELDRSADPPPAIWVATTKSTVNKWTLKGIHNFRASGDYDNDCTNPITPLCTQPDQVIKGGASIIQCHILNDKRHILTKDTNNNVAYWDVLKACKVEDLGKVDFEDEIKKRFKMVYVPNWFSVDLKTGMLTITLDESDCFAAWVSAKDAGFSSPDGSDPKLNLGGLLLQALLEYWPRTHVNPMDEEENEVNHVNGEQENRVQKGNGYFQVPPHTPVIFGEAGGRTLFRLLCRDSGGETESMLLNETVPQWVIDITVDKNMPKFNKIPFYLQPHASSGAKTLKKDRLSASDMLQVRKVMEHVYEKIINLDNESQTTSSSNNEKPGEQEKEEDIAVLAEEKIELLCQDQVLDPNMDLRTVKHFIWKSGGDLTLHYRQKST
# Method: as §1, §2
# USP12 = USP12 (UniProt O75317 SEQ:1-370); test: EMSA; 300 nM USP12; conditions: label: Cy3
# Sequence of USP12 (O75317 whole entry): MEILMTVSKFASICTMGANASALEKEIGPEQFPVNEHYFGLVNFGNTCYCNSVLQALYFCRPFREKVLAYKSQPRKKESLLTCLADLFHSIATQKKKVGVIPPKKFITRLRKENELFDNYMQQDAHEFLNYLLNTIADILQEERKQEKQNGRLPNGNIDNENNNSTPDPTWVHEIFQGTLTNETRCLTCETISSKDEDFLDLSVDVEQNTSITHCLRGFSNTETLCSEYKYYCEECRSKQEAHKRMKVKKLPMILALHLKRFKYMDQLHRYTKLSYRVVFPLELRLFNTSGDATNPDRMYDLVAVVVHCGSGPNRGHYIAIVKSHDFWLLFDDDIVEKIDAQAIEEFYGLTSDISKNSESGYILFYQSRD
# Method: as §1
# USP1, USP12, and USP46 are related DUB proteins which bind and are stimulated by UAF1 (20, 23, 24, 31, 32). All three proteins contain a conserved UAF1 binding site, localized to a zinc finger region of each polypeptide (FIG. 10A). These USPs bind to a discrete WD40 domain of UAF1 (23, 24). Of the three proteins, USP1 is the largest protein, as shown by the sequence alignment with USP12 and USP46 (FIG. 10C).
# USP1/UAF1 complex = USP1/UAF1 complex (UniProt O94782;Q8TAF3 O94782:1-785,Q8TAF3:1-677); test: EMSA; 100 nM USP1 + 300 nM UAF1; conditions: tags: SF9-made, R&D systems or Boston Biochem, label: Cy3
# Sequence of USP1/UAF1 complex (Q8TAF3 whole entry, one chain of several): as the sequence (Q8TAF3 whole entry, one chain of several) above
# Method: as §1, §2
# [1] = fork with non-complementary single-stranded arms
Binder,binding result (USP1),binding result (UAF1 (WDR48); [1]),binding result (USP12; [1]),binding result (USP1/UAF1 complex; [1]),binding result (UAF1 (WDR48)),binding result (USP12),binding result (USP1/UAF1 complex)
40-mer fork DNA (structured_DNA) DNA 1: CCAGTGAATTGTTGCTCGGTACCTGCTAACGGTAATCGG DNA 2: CAGCTATGGGACATTCGATACCGAGCAACAATTCACTGG,binds,binds,no binding,binds,,,
40-mer dsDNA (dsDNA) DNA 1: CCAGTGAATTGTTGCTCGGTACCTGCTAACGGTAATCGG DNA 2: CCGATTACCGTTAGCAGGTACCGAGCAACAATTCACTGG,,,,,binds,no binding,binds
CCAGTGAATTGTTGCTCGGTACCTGCTAACGGTAATCGG (ssDNA) [40-mer ssDNA (top)],,,,,binds,no binding,binds
